Results published in paper doi:10.1101/2024.09.06.611148 (bioRxiv, 2024).

Target: Alexa-647-labelled actin (UniProt P68135 1-377, Alexa-647 (Monolith NT Protein Labelling Kit RED-NHS))
Experiment: MST

Kd: 330 ± 80 nM
B1: recombinant HYC2 (GST-HYC2 or HYC2-6XHis) (natural protein)
chain: MDFSVKPSGGSPSPSSSTSSSTPHRFKSVTTPTATAAAVSGFSPSAAADRDPMHSWWESVSKQRSRILSLSSLLSGDSHFEDGDVTPISSLADSDRPALSLLSSRAAYSLISNSLCNPASGSGSDPLCQWLYETYLSSDPPLRLVVLSFFPLLVGMYLSRIHSSDSTSLPSLSGFEAVLLAIYAAEVKARAGKPILVHIPDLSQPSLYHTPRNGVDKSRDSNPTASVGVLSPQLEPQIAVKSTKRASIVGVGLQCYFKEISQMPAWSKLEFCKFSASWAGQDCDCKEKIDEDEDKVLALTNGFGDSSSFNGSSGRSLEIEEDFDRLAIRENEEQLSSNGGGGGVGRGVRIPLPWELFQPTLRILGHCLLSPLNTEDVKDAASNAVRSLYARASHDLNPQAILATRSLVNLDTSARTSGKTVAAETVNGSSNVNTPSKAKKPEILLASK
